The numbers were not newly measured in article PMC11209772, which cites them from elsewhere.

Values joined by “and” are separate entries in the source; they are usually repeats but may differ in a detail not shown here. Equal entries are not always repeated. Where two headings read alike, the source gives them in different places.

By Kd is commonly meant the concentration at which binding is half-saturated.

Data set [1] addresses SSB (Escherichia coli) (UniProt P0AGE0).
The target is the same in data set [2]. In words: FP.
Data set [3] deals with SSB-Ct peptide (Escherichia coli) (UniProt P0AGE0). In words: FP.
The target of data set [4] is SSB (Escherichia coli) (UniProt P0AGE0). Kind of data set: SPR. On the technique in general: Surface plasmon resonance follows binding to a sensor surface in real time, without labels.
Data set [5] deals with SSB C-terminal peptide C-terminal 15 residues (Escherichia coli) (UniProt P0AGE0). Kind of data set: SPR.
Data set [6] deals with SSB-Ct peptide SSB-Ct (Escherichia coli) (UniProt P0AGE0). In words: ITC.
Data set [7] concerns the target SSB (Escherichia coli) (UniProt P0AGE0). Kind of data set: ITC.
The target of data set [8] is SSB-Ct peptide SSB-Ct (Escherichia coli) (UniProt P0AGE0).
The target is the same in data set [9]. In words: FP.

With “DNA polymerase III subunit chi (from UniProt P28905)”, in the data set with SSB (Escherichia coli) [1], the Kd was 330 nM.

As to DNA polymerase IV (from UniProt Q47155), the dissociation constant (Kd) with SSB (Escherichia coli) [2] was 2000 nM.

For the substance ExoI (from UniProt P04995), the dissociation constant (Kd) in data set [3] is 136 nM.

For the substance Pol III χψ (from UniProt P28905), the dissociation constant (Kd) with SSB (Escherichia coli) [4] was 2700 nM.

For the substance PriA (from UniProt P17888), the dissociation constant (Kd) in [5] is 2400 nM.

PriC (from UniProt P23862): the Kd in [6] was 670 nM and 3700 nM.

As for RNase HI (from UniProt P0A7Y4), the dissociation constant Kd with SSB (Escherichia coli) [7] was 2000 nM.

As for RadD (from UniProt P33919), the Kd in [8] and in [3] was 5400 nM throughout.

With RarA (from UniProt P0AAZ4), the equilibrium dissociation constant (Kd) with SSB (Escherichia coli) [4] was 360 nM.

In the case of RecO (from UniProt P0A7H3), in [9], the Kd is 60 nM.

On to RecQ (from UniProt P15043), for which the Kd with SSB (Escherichia coli) [7] is 6000 nM.

Regarding UDG (from UniProt P12295), the equilibrium dissociation constant (Kd) with SSB (Escherichia coli) [4] is 170 nM.
